The source of these data is article PMC6955223, “The adaptor proteins HAP1a and GRIP1 collaborate to activate the kinesin-1 isoform KIF5C” (Journal of Cell Science, 2019).

This experiment concerns the target T1, KIF5C–Halo (UniProt P28738 1-956, HaloTag TMR ligand on the HaloTag).
T1 construct: kinesin-1 heavy chain KIF5C; construct from Twelvetrees et al., 2016; also called KIF5C labelled with HaloTag TMR ligand; motor; source: COS cells, transfected, in lysate
T1 sequence (looked up): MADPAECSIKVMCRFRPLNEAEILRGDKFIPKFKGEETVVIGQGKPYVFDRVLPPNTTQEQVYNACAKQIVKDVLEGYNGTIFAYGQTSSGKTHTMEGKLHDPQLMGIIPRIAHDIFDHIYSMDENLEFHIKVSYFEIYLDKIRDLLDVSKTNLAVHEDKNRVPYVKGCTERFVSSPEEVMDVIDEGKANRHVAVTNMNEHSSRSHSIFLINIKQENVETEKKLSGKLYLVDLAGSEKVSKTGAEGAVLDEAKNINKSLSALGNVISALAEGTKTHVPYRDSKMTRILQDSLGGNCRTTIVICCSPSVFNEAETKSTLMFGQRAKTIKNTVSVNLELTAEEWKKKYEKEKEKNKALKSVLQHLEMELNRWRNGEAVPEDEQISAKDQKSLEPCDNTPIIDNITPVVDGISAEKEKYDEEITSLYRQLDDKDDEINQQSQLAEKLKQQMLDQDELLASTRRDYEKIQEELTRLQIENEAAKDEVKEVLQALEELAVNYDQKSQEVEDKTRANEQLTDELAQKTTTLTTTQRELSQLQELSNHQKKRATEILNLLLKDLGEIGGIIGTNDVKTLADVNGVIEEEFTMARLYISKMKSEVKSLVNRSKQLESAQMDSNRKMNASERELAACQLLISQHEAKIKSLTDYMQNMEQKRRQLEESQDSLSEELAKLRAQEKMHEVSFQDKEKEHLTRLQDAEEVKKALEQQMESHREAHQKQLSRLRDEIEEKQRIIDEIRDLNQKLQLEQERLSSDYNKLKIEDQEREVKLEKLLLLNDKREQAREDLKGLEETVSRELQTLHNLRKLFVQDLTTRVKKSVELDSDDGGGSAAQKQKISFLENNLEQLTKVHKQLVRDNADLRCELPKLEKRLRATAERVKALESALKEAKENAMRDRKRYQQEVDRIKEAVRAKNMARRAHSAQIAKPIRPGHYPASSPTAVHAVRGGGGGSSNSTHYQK
The experiment in a line: counting of GFP photobleaching steps (TIRFM); motor–adaptor complexes from mixed cell lysates immobilised on microtubules with 15 mM AMP-PNP instead of ATP; GFP-labelled HAP1a and GRIP1 both present; bleaching steps counted for each spot. The following applies: partners not purified.

B1: GFP-labelled HAP1a (natural protein, rat, UniProt P54256-2 1-599, looked up)
chain: MRPKDQVQSSAGDGTGSGDPATGTPTTQPAADPAPEPSAEPKPAPAQGTGSGQKSGSRTKTGGSFCRSRIRGDSDAPWTRYIFQGPYGPRATGLGTGRAEGIWKTPAAYIGRRPGVSGPERAAFIRELQEALCPNPLPRKKITEDDIKVMLYLLEEKERDLNTAARIGQSLVKQNSVLMEENNKLETMLGSAREEILHLRKQVNLRDDLLQLYSDSDDDEEDEEDEEEEEGEEEEREGQRDQDQQHDHPYGAPKPPPKAETLHHCPQLEALKQKLKLLEEENDHLREEASHLDNLEDKEQMLILECVEQFSEASQQMAELSEVLVLRLEGYERQQKEITQLQAEITKLQQRCQSYGAQTEKLQQQLASEKGVHPESLRAGSHMQDYGSRPRERQEDGKSHRQRSSMPAGSVTHYGYSVPLDALPSFPETLAEELRTSLRKFITDPAYFMERCDTRCREERKKEQGTMPPPPVQDLKPPEDFEAPEELVPEEELGAIEEVGTAEDGPAEETEQASEETEAWEEVEPEVDEATRMNVVVSALEASGLGPSHLDMKYVLQQLSNWQDAHSKRQQKQKVVPKGECSRRGHPPASGTSYRSSTL
notes: huntingtin-associated protein 1, rodent isoform HAP1a; Construct not described in the methods; named only in the sentence on photobleaching; source: cell lysate (COS cells as for the motility assay)
Turning to B1, the “stoichiometry N” value came out at 2 HAP1a molecules per motor.

For orientation: stoichiometry N means a count of units in the complex or per binding partner.
